Data on three substances can be found in publication PMC8355326.

Assay in all cases: cryo-EM structure
Test [1] concerns the target BG505 SOSIP.v5.2 N241/N289 (HIV (BG505 genotype, clade A)).
Test [2] addresses BG505 SOSIP.v5.2(7S) N241/N289 (HIV (BG505 genotype, clade A)).
Test [3] concerns the target BG505 SOSIP MD39 (HIV (BG505 genotype, clade A)).

Take “BG505 SOSIP.v5.2 N241/N289 (domain or fragment)”: in test [1], the stoichiometry N (as a rule, the number of molecules, sites or subunits per partner or assembly) is 3.
Consider “BG505 SOSIP.v5.2(7S) N241/N289 (domain or fragment)”, for which the stoichiometry N in test [2] is 3.
BG505 SOSIP MD39 (domain or fragment) came in with a stoichiometry N in test [3] of 3.
